# Assay results from patent publication US20210130437A1.
# B1: variant CD155 IgV-Fc P18S/S65W/S67A/L104Q/G111R (Fc fusion)
# chain: WPPPGTGDVVVQAPTQVSGFLGDSVTLPCYLQVPNMEVTHVSQLTWARHGESGSMAVFHQTQGPWYAESKRLEFVAARLGAELRNASLRMFGLRVEDEGNYTCQFVTFPQRSRSVDIWLRVLAAAEPKSSDKTHTCPPCPAPELLGGPSVFLFPPKPKDTLMISRTPEVTCVVVDVSHEDPEVKFNWYVDGVEVHNAKTKPCEEQYGSTYRCVSVLTVLHQDWLNGKEYKCKVSNKALPAPIEKTISKAKGQPREPQVYTLPPSREEMTKNQVSLTCLVKGFYPSDIAVEWESNGQPENNYKTTPPVLDSDGSFFLYSKLTVDKSRWQQGNVFSCSVMHEALHNHYTQKSLSLSPGK
# Target: human PD-1 and human TIGIT co-expressed on Jurkat cells (Jurkat/PD-1/TIGIT cells) (human)
# Assay: flow cytometry, Jurkat/PD-1/TIGIT cells
# human PD-1 and human TIGIT co-expressed on Jurkat cells (Jurkat/PD-1/TIGIT cells) (human), sequence (chain, as listed by the source, chain 1 of 2): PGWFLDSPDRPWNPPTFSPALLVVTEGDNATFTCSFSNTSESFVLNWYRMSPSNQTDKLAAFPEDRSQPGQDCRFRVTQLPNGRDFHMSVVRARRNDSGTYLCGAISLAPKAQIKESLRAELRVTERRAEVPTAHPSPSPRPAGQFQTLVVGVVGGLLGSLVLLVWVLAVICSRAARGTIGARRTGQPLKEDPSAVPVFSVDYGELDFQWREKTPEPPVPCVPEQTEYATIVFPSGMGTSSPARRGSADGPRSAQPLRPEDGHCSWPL
# human PD-1 and human TIGIT co-expressed on Jurkat cells (Jurkat/PD-1/TIGIT cells) (human), sequence (chain, as listed by the source, chain 2 of 2): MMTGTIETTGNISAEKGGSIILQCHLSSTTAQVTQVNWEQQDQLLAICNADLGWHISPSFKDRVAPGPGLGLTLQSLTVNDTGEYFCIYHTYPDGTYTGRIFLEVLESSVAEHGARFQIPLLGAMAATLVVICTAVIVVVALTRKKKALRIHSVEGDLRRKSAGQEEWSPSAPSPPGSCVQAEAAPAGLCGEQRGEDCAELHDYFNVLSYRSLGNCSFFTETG
binder,measurement,value
B1,MFI at 6.25 nM,4890 MFI
